Experimental findings from patent US10041047B2, “Compositions and methods for epithelial stem cell expansion and culture” (The Brigham and Women's Hospital, Inc., priority 2013, dated 2018) are described below.

Test [1] concerns Lgr5+ stem cells in small intestinal crypts. Put plainly: Small intestinal crypt culture from Lgr5-GFP mice in Matrigel: cell proliferation and Lgr5-GFP expression. The test is classed as cell-based, mouse. Conditions: for requirement of growth factor to maintain self-renewal of Lgr5+ stem cells: crypts 6 days in the CV condition (CHIR 3 μM, VPA 1 mM). The procedure: Crypts and single Lgr5-GFP cells were isolated as previously described (Sato et al., 2009). Briefly, the proximal half of the small intestine was harvested, opened longitudinally, and washed with cold PBS to remove luminal content. The tissue was then cut into 2-4 mm pieces with scissors and further washed 5-10 times with cold PBS by pipetting up and down using a 10-ml pipette. Tissue fragments were incubated with 2 mM EDTA in PBS for 30 min on ice. After removal of EDTA, tissue fragments were washed with PBS to release crypts. Supernatant fractions enriched in crypts were collected, passed through a 70 μm cell strainer and centrifuged at 300 g for 5 minutes. The cell pellet was re-suspended with cell culture media without growth factors and centrifuged at 150 g to remove single cells. Crypts were then cultured or used for single cell isolation. To obtain single cells, crypts were incubated in culture medium for 45 minutes at 37° C. and triturated with a glass pipette. Dissociated cells were passed through 20 μm cell strainer, negative stained with propidium iodide and single viable GFP-high cells were sorted by flow cytometry (FACS Aria, BD) as previously described (Sato et al., 2009). Small intestinal crypts isolated from Lgr5-EGFP-ires-CreERT2 mice were embedded in Matrigel and cultured under conventional culture conditions in the presence of EGF, Noggin and R-spondin 1 (collectively referred to as ENR) leading to organoids with crypts and villus-like domains and GFP^+ cells at the crypt tips, consistent with previous reports (Sato et al., 2009). Isolated crypts or single cells were cultured as previously described (Sato et al., 2009) with minimal modification. Briefly, crypts or single cells were entrapped in Matrigel and plated at the center of wells in a 24-well plate. After polymerization of Matrigel (growth factor reduced; BD Bioscience), 500 μl of culture medium (Advanced DMEM/F12 (Life Technologies)) was added containing growth factors including EGF (50 ng/ml, Life Technologies), Noggin (100 ng/ml, Peprotech) and R-spondin 1 (500 ng/ml, R&D) and small molecules including CHIR99021 (3 μM, Stemgent) and Valproic Acid (1 mM, Sigma-Aldrich). For comparison of different culture conditions, small molecules or growth factors were added to freshly isolated crypts immediately after plating in Matrigel to test the ability to minimize potential differentiation of the ISC within the crypts and thus sustain crypt cultures. Cell culture media was changed every other day. For single cell culture, cells were embedded in Matrigel containing Jagged-1 peptide (1 μM; AnaSpec) and Y-27632 (10 μM; Tocris) was added for the first 2 days. Cells were passaged either as cell colonies as previously described (Sato et al., 2009) or as single cells. […]

Test [2] deals with Lgr5+ stem/progenitor cells derived from the mouse inner ear. Put plainly: Culture of inner ear (cochlear) Lgr5-GFP epithelial cells in Matrigel. The conditions noted are these: 8 day cultures; added to EGF+CV or to the EGF+bFGF combination (FIG. 14D, 14E). In kind it is cell-based. The source says: The same culture condition (EGF, Noggin, R-spondin1, or “ENR”) as used in Lgr5+ small intestinal stem cell cultures was first established.
Isolated organ of Corti from Lgr5-GFP mice were dissociated into single cells using accutase and cultured in multiple combinations of soluble factors and small molecules in Matrigel for 8 days. The resulting cultures were further dissociated into single cells and analyzed using FACS. […] In addition, the combination of EGF, bFGF and IGF-1 (designated as EFI) improved cell proliferation and GFP expression compared with the ENR condition (FIG. 14A-14C).
To further investigate the effects of individual growth factors when combined with CHIR and VPA, growth factors including Mitogenic growth factors (EGF, bFGF and IGF-1) as well as the Wnt agonist R-spondin 1 in combination with CHIR and VPA were tested.

B1: R-Spondin 2: agent that binds to the LGR5 receptor (protein, UniProt Q6UXX9 22-243, looked up)
R-spondin-2: QGNRWRRSKRASYVSNPICKGCLSCSKDNGCSRCQQKLFFFLRREGMRQYGECLHSCPSGYYGHRAPDMNRCARCRIENCDSCFSKDFCTKCKVGFYLHRGRCFDECPDGFAPLEETMECVEGCEVGHWSEWGTCSRNNRTCGFKWGLETRTRQIVKKPVKDTILCPTIAESRRCKMTMRHCPGGKRTPKAKEKRNKKKKRKLIERAQEQHSVFLATDRANQ
Turning to B1, the “organoid formation (number of organoids formed at day 5)” value in test [1] (ENR condition, R-spondin 2 compared to R-spondin 1 at multiple concentrations) is on record as “better efficacy at lower concentrations”.

B2: Wnt3a: Wnt pathway activator protein (protein, UniProt P56704 19-352, looked up)
Protein Wnt-3a: SYPIWWSLAVGPQYSSLGSQPILCASIPGLVPKQLRFCRNYVEIMPSVAEGIKIGIQECQHQFRGRRWNCTTVHDSLAIFGPVLDKATRESAFVHAIASAGVAFAVTRSCAEGTAAICGCSSRHQGSPGKGWKWGGCSEDIEFGGMVSREFADARENRPDARSAMNRHNNEAGRQAIASHMHLKCKCHGLSGSCEVKTCWWSQPDFRAIGDFLKDKYDSASEMVVEKHRESRGWVETLRPRYTYFKVPTERDLVYYEASPNFCEPNPETGSFGTRDRTCNVSSHGIDGCDLLCCGRGHNARAERRREKCRCVFHWCCYVSCQECTRVYDVHTCK
Regarding B2, in test [1] (crypts cultured 6 days, agent added to ENR condition, compared to ENR), the “cell proliferation of crypt cells (organoid size and cell numbers)” value is reported as “increased crypt proliferation”.

B3: R-spondin 1: agent that binds to the LGR5 receptor, Wnt agonist (protein, UniProt Q2MKA7 21-263, looked up)
R-spondin-1: SRGIKGKRQRRISAEGSQACAKGCELCSEVNGCLKCSPKLFILLERNDIRQVGVCLPSCPPGYFDARNPDMNKCIKCKIEHCEACFSHNFCTKCKEGLYLHKGRCYPACPEGSSAANGTMECSSPAQCEMSEWSPWGPCSKKQQLCGFRRGSEERTRRVLHAPVGDHAACSDTKETRRCTVRRVPCPEGQKRRKGGQGRRENANRNLARKESKEAGAGSRRRKGQQQQQQQGTVGPLTSAGPA
Regarding B3, the “requirement of growth factor to maintain self-renewal of Lgr5+ stem cells” value in test [1] was “still required”. Also, the “GFP expression on addition of a growth factor” value in test [2] is “slightly increased”.

B4: Noggin: inhibitor of Bone Morphogenic Proteins (protein, UniProt Q13253 28-232, looked up)
Noggin: QHYLHIRPAPSDNLPLVDLIEHPDPIFDPKEKDLNETLLRSLLGGHYDPGFMATSPPEDRPGGGGGAAGGAEDLAELDQLLRQRPSGAMPSEIKGLEFSEGLAQGKKQRLSKKLRRKLQMWLWSQTFCPVLYAWNDLGSRFWPRYVKVGSCFSKRSCSVPEGMVCKPSKSVHLTVLRWRCQRRGGQRCGWIPIQYPIISECKCSC
For B4, the “requirement of growth factor to maintain self-renewal of Lgr5+ stem cells” value in test [1] is “still required”.
